# From US20190040127A1 (University of California, published 2019)
# Numbering of substitutions follows the chain as printed.
# B1: PG-101 Parental (antibody, human IgG1, kappa, V domains shown)
# VH: QVQLVQSGGGVVQPGRSLRLSCAASGFTFSSYAMHWVRQAPGKGLEWVAVISYDGSNKYYADSVKGRFTISRDNSKNTLYLQMNSLRAEDTAVYYCARDRRGRKSAGIDYWGQGTLVTVSS
# VL: DIQMTQSPSSLSASVGDRVTITCQASQDISNYLNWYQQKPGKAPKLLIYAASSLQSGVPSRFSGSGSGTDFTLTISSLQPEDFATYYCLQDYNGWTFGQGTKVDIKR
# notes: Full IgG1/kappa made in HEK293 cells; also called parental antibody
# B2: PG-101 Variant 1 (antibody, human IgG1, kappa, V domains shown)
# VH: B1 VH
# VL: B1 VL with N93S
# notes: Full IgG1/kappa made in HEK293 cells; also called anti-EMP2 Variant 1; PG-201
# B3: PG-101 Variant 2 (antibody, human IgG1, kappa, V domains shown)
# VH: B1 VH
# VL: B1 VL with G94L
# notes: Full IgG1/kappa made in HEK293 cells
# Assays:
# [1] = target: T1, Epithelial Membrane Protein 2 (EMP2) (human, UniProt P54851 1-167); assay: flow cytometry on SUM149 cells, nonlinear regression (FIG. 4)
# T1 construct: Endogenous EMP2 on SUM149 or MDA-MB-468 breast cancer cells
# T1 sequence: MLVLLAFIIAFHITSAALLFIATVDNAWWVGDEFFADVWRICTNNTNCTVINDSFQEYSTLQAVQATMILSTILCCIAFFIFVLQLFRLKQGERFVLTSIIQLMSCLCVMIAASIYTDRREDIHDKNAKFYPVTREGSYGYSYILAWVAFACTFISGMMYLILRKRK
# Method: (§1) A comparison of anti-EMP2 Variant 1 and PG-101 binding affinity for EMP2 was carried out. […] PG-101 and Variant 1 binding to EMP2 was determined using SUM149 and flow cytometry. Variant 1 retains binding to EMP2 with improved affinity. Flow cytometry was used to determine the ability of both antibodies to bind to EMP2 on SUM149 cells.
# [2] = target: T1, Epithelial Membrane Protein 2 (EMP2); assay: flow cytometry on SUM149 cells (FIG. 4)
# Method: as §1
# [3] = target: T1, Epithelial Membrane Protein 2 (EMP2); assay: flow cytometry on MDA-MB-468 cells (FIG. 2)
binder,measurement,setting,value
B1,Kd,[1],2.6 µg/mL
B2,fold increase in binding against the parental antibody PG-101,[2],> 2 fold
B3,binding result,[3],binds
